Laboratory results reported in patent US6699677B1, “Tethered ligands and methods of use” (ChemoCentryx, Inc., priority 1999, dated 2004).
One block for each molecule: values may come before it.

Tests used:
CCR8 = target: T1, CCR8 (Homo sapiens, UniProt P51685); experiment: Binding of CCR8-NSO cells to immobilized stalkokines
T1 construct: host or cells: mouse myeloma NSO
Procedure: (§1) In one set of experiments, five 8 well chamber slides (Lab-Tek II, Nalge Nunc International, Rochester, N.Y.), 250 ul of 10 ug/ml anti-his antibody (R&D Systems, Minneapolis, Minn.) in PBS was added to each well and incubated at room temperature overnight (typically 16 hours). Following, the liquid in each well was aspirated and washed once for approximately 5 minutes with 500 ul of PBS. The wells were then “blocked” (blocked for any additional protein binding sites) with the addition of 250 ul of blocking solution (2% fetal bovine serum, 0.5% BSA in PBS) and incubation for 1 hour at room temp (e.g., 20° C.). The liquid in each well was aspirated and 250 ul of supernatant containing the chemokine-stalk-immobilization domain fusion proteins (SDF1a-FRAC, finetaxin-FRAC, CCL27-FRAC, 1309-FRAC, MIP3a-FRAC, ELC-FRAC, SLC-FRAC, MDC-FRAC, TARC-FRAC, or BRAK-FRAC) or the control supernatant was added to two wells. Each slide contained two wells with control supernatant (from mock-transfected cells) and two wells with the positive control SDF1a (which binds the ubiquitous chemokine receptor CXCR4). The four other wells were for experimental samples. The supernatants were incubated for one hour at room temperature (typically 20° C.), then incubated for an additional hour at 37° C. […] The slide was then ready for addition of cells for assay. […]

CCR10 [1] = target: T2, CCR10 (Homo sapiens, UniProt Q9NPB9); experiment: Spectrum of ligands that bind to CCR10; format: binding
T2 construct: Full length CCR10 expression constructs were made in pIRESpuro expression vector; expressed in transfected cells; HEK293-CCR10)
T2 sequence (Q9NPB9 1-350): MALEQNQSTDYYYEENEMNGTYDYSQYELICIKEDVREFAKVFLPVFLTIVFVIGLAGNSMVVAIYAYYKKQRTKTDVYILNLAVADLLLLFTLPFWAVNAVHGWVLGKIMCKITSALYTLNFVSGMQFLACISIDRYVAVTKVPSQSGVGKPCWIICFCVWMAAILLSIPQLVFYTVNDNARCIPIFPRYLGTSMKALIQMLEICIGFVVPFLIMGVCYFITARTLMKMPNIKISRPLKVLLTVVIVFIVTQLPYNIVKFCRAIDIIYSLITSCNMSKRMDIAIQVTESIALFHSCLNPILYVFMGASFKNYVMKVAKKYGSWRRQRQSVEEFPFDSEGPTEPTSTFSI
Text: (§2) Furthermore ELC-SK mediated adhesion was abolished in the presence of soluble native ELC as a competitor (FIG. 3A, top row). […] Moreover, radiolabeled ELC was used in a traditional homologous competition assay in the presence of increasing concentrations of unlabeled ELC. […] Taken together, the stalkokine-based adhesion and radiolabeled ligand binding/homologous competition assays indicate that CCR10 is a new chemokine receptor that bound a novel compliment of chemokines.

CCR10 [2] = target: T2, CCR10; experiment: Homologous competition binding of radiolabeled chemokine on HEK293-CCR10 cells
Text: Human, viral and murine recombinant chemokines were obtained from R&D Systems (Minneapolis, Minn.; http://cytokine.rndsystems.com/cyt_cat/cyt_cat.html). ^125I-labeled ELC and TECK were obtained from Amersham. Full length CCR10 expression constructs were made in pIRESpuro expression vector (Clontech, Palo Alto, Calif.) with a FLAG epitope tag and prolactin signal sequence, and used to generated stable transfectants in HEK293 cells. Transient and stable transfections for CCR10 and stalkokines were done using Superfect reagent (Qiagen, Valencia, Calif.) following manufacturer's protocol. Stably-transfected cells were generated by selection in 2 ug/mL puromycin for 7 days, and expression was confirmed by FACS analysis of the FLAG epitope using anti-FLAG M1 (Sigma, St. Louis, Mo.) and 2′ anti-mouse PE conjugate (Coulter Immunotech, Miami, Fla.).
as §2

CCR7 = target: T3, CCR7 (Homo sapiens, UniProt P32248); experiment: Binding of CCR7-NSO cells to immobilized stalkokines
T3 construct: host or cells: mouse myeloma NSO
T3 sequence (P32248 25-378): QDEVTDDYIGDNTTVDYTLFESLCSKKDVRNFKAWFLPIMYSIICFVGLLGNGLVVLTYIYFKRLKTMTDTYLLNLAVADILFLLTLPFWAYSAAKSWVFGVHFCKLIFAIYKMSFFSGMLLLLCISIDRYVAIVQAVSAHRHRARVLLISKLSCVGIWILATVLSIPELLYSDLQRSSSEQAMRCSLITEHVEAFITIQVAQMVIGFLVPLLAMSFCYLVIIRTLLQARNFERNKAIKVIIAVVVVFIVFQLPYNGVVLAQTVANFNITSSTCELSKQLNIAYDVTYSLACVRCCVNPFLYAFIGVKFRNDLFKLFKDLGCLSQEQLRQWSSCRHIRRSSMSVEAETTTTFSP
Procedure: as §1

T1 sequence (P51685 whole entry): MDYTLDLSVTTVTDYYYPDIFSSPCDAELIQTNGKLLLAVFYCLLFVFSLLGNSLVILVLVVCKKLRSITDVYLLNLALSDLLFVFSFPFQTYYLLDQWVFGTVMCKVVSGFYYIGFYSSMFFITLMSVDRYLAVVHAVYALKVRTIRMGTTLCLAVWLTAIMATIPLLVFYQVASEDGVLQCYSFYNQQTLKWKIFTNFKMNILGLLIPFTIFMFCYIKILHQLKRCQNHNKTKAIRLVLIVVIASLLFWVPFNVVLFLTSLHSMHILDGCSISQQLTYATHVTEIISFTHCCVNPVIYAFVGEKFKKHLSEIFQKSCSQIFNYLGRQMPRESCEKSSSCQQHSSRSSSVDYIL

Binding to Stalkokine form (CCR8): yes, yes
B1: I309: stalkokine form of chemokine I309 (protein)
chain: KSMQVPFSRCCFSFAEQEIPLRAILCYRNTSSICSNEGLIFKLKRGKEACALDTVGWVQRHRKMLRHCPSKRKEFGGTFEKQIGEVKPRTTPAAGGMDESVVLEPEATGESSSLEPTPSSQEAQRALGTSPELPTGVTGSSGTRLPPTPKAQDGGPVGTELFRVPPVSTAATWQSSAPHQPGPSLWAEAKTSEAPSTQDPSTQASTASSPAPEENAPSEGQRVWGQGQSPRPENSLEREEMGPVPAHTDAFQDWGPGSMAHVSVVPVSSEGTPSREPVASGSWTPKAEEPIHATMDPQRLGVLITPVPDAQA
modifications: left off: small tags and cut ends

Affinity of binding to CCR10 (CCR10 [1]): high affinity | Binding of radiolabeled chemokine in homologous competition with cold chemokine (CCR10 [2]): Nearly identical results
B2: TECK: thymus expressed chemokine, soluble recombinant (protein)
chain: QGVFEDCCLAYHYPIGWAVLRRAWTYRIQEVSGSCNLPAAIFYLPKRHRKVCGNPKSREVQRAMKLLDARNKVFAKLHHNTQTFQAGPHAVKKLSSGNSKLSSSKFSNPISSSKRNVSLLISANSGL

Affinity of binding to CCR10 (CCR10 [1]): high affinity | Binding to Stalkokine form (CCR7): no
B3: SLC: secondary lymphoid-tissue chemokine, soluble recombinant (protein, UniProt O00585 24-134, looked up)
C-C motif chemokine 21: SDGGAQDCCLKYSQRKIPAKVVRSYRKQEPSLGCSIPAILFLPRKRSQAELCADPKELWVQQLMQHLDKTPSPQKPAQGCRKDRGASKTGKKGKGSKGCKRTERSQTPKGP
